As a reminder, the Kd is a measure of binding affinity in units of concentration. Read a low Kd as higher affinity.

The results in this text go back to publication PMC5906480, “Tau Antibody Structure Reveals a Molecular Switch Defining a Pathological Conformation of the Tau Protein” (Scientific Reports, 2018).

Assay [1] has as its target FITC-conjugated tau peptide pS396/pS404. The assay can be described thus: Fluorescence polarization direct binding, pS396/pS404 peptide. The following applies: Fab C5.2 675 nM to 0.08 nM; FITC-peptide 300 nM; 25 °C; 50 mM Tris, 100 mM NaCl, 0.1% pluronic F-127; ex 485/em 535 nm; triplicate; nonlinear regression. On the procedure: (§1) FITC-labeled peptides used in fluorescence polarization experiments were synthesized by Biomatik (Cambridge, ON, Canada). Fab C5.2 affinity was determined using a fluorescence polarization-based direct binding assay with fluorescein isothiocyanate (FITC)-conjugated peptides (Table 1). The FITC-peptide concentration was kept constant at 300 nM while Fab C5.2 was serially diluted from 675 nM to 0.08 nM. Data was collected at 25 °C using excitation and emission wavelengths of 485 nm and 535 nm, respectively. Each experiment was done in a single 96-well plate and calculated in triplicate (buffer: 50 mM Tris, 100 mM NaCl, 0.1% pluronic F-127). The experiments were performed with a DTX 880 Multimode Detector (Beckman Coulter, Jersey City, NJ). Fluorescence data was reduced using multimode detection software and KD values were calculated in GraphPad Prism 7.0 using a nonlinear regression model.
(§2) To accurately measure the C5.2 binding affinity, we performed fluorescence polarization experiments to determine dissociation constants (KD), using the Fab C5.2 and four differentially phosphorylated FITC-conjugated peptides (Table 1). The peptide concentration was kept constant while that of Fab C5.2 was serially diluted from 675 nM to 0.08 nM (Fig. 1d). […] In comparison with a […] IgG molecule, each Fab fragment contains a single binding site so the KD was calculated using a nonlinear model.

The target of assay [2] is FITC-conjugated tau peptide pS396. The assay can be described thus: Fluorescence polarization direct binding, pS396 peptide. The following applies: Fab C5.2 675 nM to 0.08 nM; FITC-peptide 300 nM; 25 °C; 50 mM Tris, 100 mM NaCl, 0.1% pluronic F-127; ex 485/em 535 nm; triplicate; nonlinear regression. The protocol: as §1, §2
In general terms: In fluorescence polarisation assays a small probe gives low polarisation when free and higher when bound to something large.

In assay [3] the test system is FITC-conjugated tau peptide pS404. The assay can be described thus: Fluorescence polarization direct binding, pS404 peptide. The following applies: Fab C5.2 675 nM to 0.08 nM; FITC-peptide 300 nM; 25 °C; fluorescence dip around 10 nM Fab due to protein aggregation and fluorophore quenching. On the procedure: as §1, §2
Assay [4] has as its system FITC-conjugated non-phosphorylated tau peptide. The assay can be described thus: Fluorescence polarization direct binding, non-phosphorylated peptide. The following applies: Fab C5.2 675 nM to 0.08 nM; FITC-peptide 300 nM; 25 °C; fluorescence dip around 10 nM Fab due to protein aggregation and fluorophore quenching. On the procedure: as §1, §2

B1: Fab C5.2: Fab fragment of C5.2 prepared by papain digestion (antibody, V domains shown)
VH: QVQLQQSDAELVKPGASVKISCKASGYTFTDRTIHWVKQRPEQGLEWIGYIYPGDDSTKYNDMFKAKATLTADKSSNTAYMQLNSLTSDDSAVYFCARRGTMDYWGQGTSVTVSS
VL: DVQMIQSPSSLSASLGDIVTMTCQASQDTSINLNWFQQKPGKAPKLLIYGASNLEDGVPSRFSGSRYGTDFTLTISSLEDEDMATYFCLQHTYLPFTFGSGTKLEIK
Turning to B1, the values for the dissociation constant (Kd) in assay [1] and in assay [2] were 15.4 nM and 14.9 nM, respectively. Also, the “Recognition of peptide pS404” value in assay [3] is reported as “does not recognize”. Moreover, in assay [4], the “Recognition of the non-phosphorylated peptide” value is given as “does not recognize”.
